Test: label from the status in PepcDB records
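Further: failed if final PepcDB status was selected cloned or expressed and not failed if soluble or beyond.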

With “MSARLDAQIAFLKQADRLKSVERANVLLDLSRPENSAEHSWHLALWALVLSPFAAPDVDVDRAIRMLLLHDLVEIETGDHPIHEVTDWQAVERAERAAARKLFGLLPPDQAADFHTLWTEFDADETADARYAKMLDRCQPMFQVLCADTPRPDHVEVVRENLSSGRAAYLAEAFPEAHAHARALLERHPPVTGGFGDRLEFLAEADRLKTVLRASRLMDDSRFENSAEHSWHIMLYAWVLGEYAAAPVDIDRVLRMLLLHDLVEIDAGDNPIHGNVDHAAQEALEAAAAERLFGLLPPDQGAGLRAIWQEFETAQSADALFGKAVDRVQTPIANLENGGGSWVTYDVSLQQLVARVGTPVSRGAPGLWDWLFPQLSDCFTRLGLRLLEHHHHHH” the protein production was “not failed”.
With “MSASAVHSLWTTAADPISKIDAPKIEYGQLSPTLIVIGAALVGVLVEAFVPRKSRYYAQVFVSVVALAAAFAAVVALAAGGYGTTKAHIAAMGAIAVDGPALFLQGTILLAGLLGVFTFAERRLDPEVHGNRVDSFAAQAASVPGSDSEKAAVKAGFTTTEVFPLLLFAVGGMLIFPSANDLLTLFVALEVFSLPLYLLCAVARRKRLMSQEAAVKYFLLGAFASAFTLFGIALLYGYAGSMSYATIAQVVDGTVQNVDPALAGTMGNDALLLVGAAMLVMGLLFKVGAVPFHMWTPDVYQGAPTPVTGFMAAATKVAAFGALLRLLYVVLPGLRWDWRPVMWAVAIVTMLGGAIVAITQTDIKRLLAYSSIAHAGFILAGVIATTPDGVSSVLFYLGAYSFVTIGAFAVVTLVRDAGGEATHLSKWAGLGRRSPLVAAVFAVFLLAFAGIPLTSGFAGKFAVFKAAAEGGAAPLVVVGVISSAIAAFFYIRVIVLMFFSEPRPEGPTVAVPSPLTTTVIGVGVVVTLVLGVAPQYFLDLAG” the protein production was “failed”.
For “MSASVKESLQLQLLEMEMLFSMFPNQGEVKLEDVNALTNIKRYLEGTREALPPKIEFVITLQIEEPKVKIDLQVTMPHSYPYLALQLFGRSSELDRHQQLLLNKGLTSYIGTFDPGELCVCAAIQWLQDNSASYFLNRKLV”, the protein production was “not failed”.
In the case of “MSASVLSDPTMLISTPEVILVSPVSVTQISGDEPDSVTCDCCGLTEECTQSYIEMVRERYMGKWICGLCSEAVKYEVMRTKRLLTTEEAMARHMNMCNKFKSSSPPPNPTGHLISAMRQILRKSLDSPRMLRSMPNSPSKDDQDHHHDCVSNVLSRSDSCFASLT”, the protein production is reported as “failed”.
For “MSATAAARKRGKPASGAGAGAGAGKRRRKADSAGDRGKSKGGGKMNEEISSDSESESLAPRKPEEEEEEELEETAQEKKLRLAKLYLEQLRQQEEEKAEARAFEEDQVAGRLKEDVLEQRGRLQKLVAKEIQAPASADIRVLRGHQLSITCLVVTPDDSAIFSAAKDCSIIKWSVESGRKLHVIPRAKKGAEGKPPGHSSHVLCMAISSDGKYLASGDRSKLILIWEAQSCQHLYTFTGHRDAVSGLAFRRGTHQLYSTSHDRSVKVWNVAENSYVETLFGHQDAVAALDALSRECCVTAGGRDGTVRVWKIPEESQLVFYGHQGSIDCIHLINEEHMVSGADDGSVALWGLSKKRPLALQREAHGLRGEPGLEQPFWISSVAALLNTDLVATGSHSSCVRLWQCGEGFRQLDLLCDIPLVGFINSLKFSSSGDFLVAGVGQEHRLGRWWRIKEARNSVCIIPLRRVPVPPAAGS”, the protein production was “failed”.
For “MSAYDNVIGGKLKLKGKALDVKAGGVKKKKKHKRQEEQALKITDHELIEGESTEALGKLIEGEEGDEEMNRSEKASEDAKLQQQLDDDDHLTPAERRYIEQKQRLDVQKLAKEANKSHRNRIEDFNQYLANMSEHYDIPKVGPG”, the protein production was “failed”.
With “MSCKKTEKFSETWFFKWILNNQAVVSFLILLLIGLTVLIFTKISPIFSPVIQFLTIVMLPLVISMLLYYLIKPLVLLVERTGLNRTMSILVIYAILALLLVWGISTAIPNLQDQILILLRNAPSYISRANSETERWLKLPILSNFHGDLEAMLSDFSARMINYAENFSTSALSWIGTFASTVARVTVAIILTPFILFYLLRDSQKLKHSFVSALPTRFRETTVRMLSDINNQLEGYVRGQVTVAIVIAIMFCIMFKIVGLRYGMTFGILAGFLNMIPYLGSFIAMVPVVIMGLVQGPTMLIKVLIIFVIEQTIEGRFVSPLVLGNKLSIHPITIMFILLTAGSLYGVWGVLLGIPIYASVKVIVKDIFDWYRSVSNLYQDDIEIKGQKYDVK” the protein production was “failed”.
In the case of “MSDAETLSVYAAKADDYANLTDEAAARDPSLVAFIAAMPKRGRVLDLGCGPGGSAAAMARAGLVVDAFDPVPEMVALAGRHAGVSARKAGFEDVTQVDHYDGIWANFSLLHAPRDDMPKHLARIATALKPGGRFHIGVKTGTGSKRDTLGRRYTYYSESELVDLLAAAGLTVFDRREGCDTGLDGVDAHWIVLAAHA”, the protein production is reported as “failed”.
For “MSDALINGLAGAGGGIIAQLLTYPLQTVNTRQQTERDLKREKRKLGTIEHMCQVVKQEGWERLYGGLAPSLAGTAASQGVYYYFYQVFRNRAEATALARKKKGLGDGSVGMFASLLVAAFAGSVNVLMTNPIWVIVTRMQTHRKMTKDQTAAPESPSSNAEALVAVEPRPYGTFNTIREVYDEAGITGFWKGVIPTLIMVSNPSMQFMLYETMLTKLKKKRALKGSNNVTALETFLLGAVAKLGATVTTYPLLVVKSRLQAKQVTTGDKRQQYKGTLDAILKMIRYEGLYGFYKGMSTKIVQSVLAAAVLFMIKEELVKGAKLLLSNATSS”, the protein production was “failed”.
In the case of “MSDDDDIQYIKRQRTLHYGSLEESERKRQNAAASGAAATTTSGTTASSGAGTTTTGTGGQLEDIDSDEDYEESTKKTSNAKQAGAPPPTAATLANKIDDDYFDLEMEMERDKVALLEEFERKKRARQINVSTDDTEIKSNLRQLNEPICYFGEGPAERRRRLKELLAGLGENAINKRQYEDEERKQQQREQDQATWYHEGPDSLRIARLWLADYSLPRAKDRLVRAREALEVPSAARAGRMVEMQKKLQSLAPLCSQVGDTRPVSSAAFSEDSSLLLTSSWSGLCKLWSVPDCELKQTLRGHASYVGGVALRPGVKADEENVVAMASGGHDGAVKLWGFNNEESIADITGHMPHRVSKVAFHPSGRFLATACYDSSWRLWDLEQKTEVLHQEGHAKPVHCLSYHSDGSVLVTGGLDAFGRVWDLRTGRCIMFLEGHLGAVFGVDFSPNGFHIATGSQDNTCKIWDLRRRQPVYTIPAHTNLISDVKYQQECGSFLVTCSYDSTTKIWSNKTWQPLKTLQGHDNKVISVDIAPNSQYIATTSFDRTFKLWSPDS”, the protein production is reported as “failed”.
For “MSDDLMHEPDAAQAILPPGFLKNPVHLLAFGFGSGAAPRAPGTWGSLAAIPLWYAFSWLPPAAYWLVVLAAFLVGIWLCGKTAADLKVHDHGGIVWDEFVGMWIALGLFPDQLYGVLMAFMLFRLFDVWKPWPINWLDERLPGGLGIMVDDVVAGAMALGCLWAIDVWVMPYIV”, the protein production was “failed”.
With “MSDELSDRVAQYLRWQVSDKVALLAQRYPDDTSLTLDWTDLARWDPTLAEDILDAPDSMLEYVERGIRDTPLPVDTSLGQATPRFENLPESHTTAPGEFSPSDRRGQLLALEGQVAKRTQVQPRLVEAAFECQRCGTLTRIPFEPGQFIEPFECVGCETKGPFRINPDQSRYEDYQKLLLENPSSAALGGDTSDIIAHLQGDLAGHGAIANCQDVVLVGELQFRGGGPIPEPQVVVNSVQAAGQTYQDAEFTADQRDLFERLRERPESFDVDIEDPSTADVLMAAAAPKFVSGSHPRDRQVVRGLVLQLVSASTFDGPDGSHYRGDVHVLLPGDPGTGKSVLAKWAAAVAPRSAFASGERVSGPGLTAAAVKDDFSDGGFSIEPGVLVRAHEGIAVVDELDKAGDDAIEKMHSALADQILPLSLGGQSMTLPAECGLLGVCNPLGGHFAGDESLVDALGINSPLLSRFDLIMQMRSKQDREHVRELAESMIRTWSASLKDATGQALDTADADTIDPVLSMDQYRAVLLRARQLHPTPANDRVIEALAAWFEEQKMALPERYRDALADADGQYHGPPVPVTARKLGAARRVAQAAARANLREEITMADVEVAKELVSRSLADLDIPIVHNAGLGGGDVNRREPADLSGVS” the protein production was “failed”.
For “MSDEQHDSVWPPPGLDFSKPTIARVYDALLGGKDNFEADRALADYACKHIPGLKESAIENRKVLVRGVRFLAGEAGISQFLDLGSGLPTVQNTHEVAQSVNPDARVVYVDIDPMVLTHGRALLAKDPNTAVFTADVRDPEYILNHPDVRRMIDFSRPAAIMLVGMLHYLSPDVVDRVVGAYRDALAPGSYLFMTSLVDTGLPAQQKLARITRENLGEGWARTPEEIERQFGDFELVEPGVVYTALWRPDEPVDPDNLSPGEQLGMAGIGRKKA”, the protein production was “not failed”.
For “MSDFGILSLLPPLVAIVLAIWTKRVVFALFSGVWIGGVMAANWNPITGTIKTFEWIIQNVTNSWNATILVFDFLIGAGVGLIYKSGGVHAVANAITKRIKTSRDASLLGWLLGVLIFFDDYTNTIIVGNTMRPITDKMRVSREMLAYIDDSTAAPVAGIAIVSTWIGYELGLIKEAFEKLHITMGEYYAWLHSVPYRFYSIFAIILVFIVAYTHRHYGAMLKAEMRARTTGKVVRDDAKPLMATESDLGLPLTEKGSVHFFIWPVLSLIIVTLLGLYYTGKAACEGPCGAMDILSNADSATSLLWGSFAMVAVALTLVLATKTMTVEETESAIIQGMKQMMMATVILVLAWSIKSATEAVGTAEYVVGLAQRANVPGGIIPLIIFLTAMFISFTTGTSWGTFGILMPIAIPLAYKLAPNDPQVLFASIGAVFAGGIFGDHCSPISDTTIMSSMFSGSDHIDHVTTQIPYAVTAASVGIVLYILFALGIKSPVILLPVGLVLLIAAWYFLSEWYGKKYGVPHGRVPIYPTEISE”, the protein production was “failed”.
With “MSDHPFSIQANLYLQLRHFIRLGMSKAEAIKLITYNNAKILGIEDKLGSLEKGKWASLVVWNGDPFNLENYPTHVFAEGELIHEANLLEHHHHHH” the protein production was “failed”.
With “MSDISKLIGAIVGSDDPVIIEFVLNIINKSGNLQEFIRNIQKLDAGISYEDSIKMYNAFLGKQEEEKVRNKVKSSPLSQKINQVLKDDVNLDDPVVTEFVLSILNKSKSITEFQEQLNLMQSGLDNETIFKIYQIASPPVMKEEVSVLPSTKIPAKIEAKIEEEVQKIESLDPSPVLHKVYEGKVRNITTFGCFVQIFGTRMKNCDGLVHISEMSDQRTLDPHDVVRQGQHIFVEVIKIQNNGKISLSMKNIDQHSGEIRKRNTESVEDRGRSNDAHTSRNMKNKIKRRALTSPERWEIRQLIASGAASIDDYPELKDEIPINTSYLTAKRDDGSIVNGNTEKVDSKLEEQQRDETDEIDVELNTDDGPKFLKDQQVKGAKKYEMPKITKVPRGFMNRSAINGSNAIRDHREEKLRKKREIEQQIRKQQSFDDPTKNKKDSRNEIQMLKNQLIVTEWEKNRMNESISYGKRTSLPISAQRQTLPVYAMRSELIQAVRDNQFLVIVGETGSGKTTQITQYLDEEGFSNYGMIGCTQPRRVAAVSVAKRVAEEVGCKVGHDVGYTIRFEDVTGPDTRIKYMTDGMLQREALLDPEMSKYSVIMLDEAHERTVATDVLFALLKKAAIKRPELKVIVTSATLNSAKFSEYFLNCPIINIPGKTFPVEVLYSQTPQMDYIEAALDCVIDIHINEGPGDILVFLTGQEEIDSCCEILYDRVKTLGDSIGELLILPVYSALPSEIQSKIFEPTPKGSRKVVFATNIAETSITIDGIYYVVDPGFAKINIYNARAGIEQLIVSPISQAQANQRKGRAGRTGPGKCYRLYTESAFYNEMLENTVPEIQRQNLSHTILMLKAMGINDLLKFDFMDPPPKNLMLNALTELYHLQSLDDEGKLTNLGKEMSLFPMDPTLSRSLLSSVDNQCSDEIVTIISMLSVQNVFYRPKDRQLEADSKKAKFHHPYGDHLTLLNVYTRWQQANYSEQYCKTNFLHFRHLKRARDVKSQISMIFKKIGLKLISCHSDPDLIRKTFVSGFFMNAAKRDSQVGYKTINGGTEVGIHPSSSLYGKEYEYVMYHSIVLTSREYMSQVTSIEPQWLLEVAPHFYKAGDAESQSRKKAKIIPLHNKFAKDQNSWRLSSIRQSRERALGIKR” the protein production was “failed”.
In the case of “MSDKFNQFINRVLSHEGGYANHPKDPGGETNWGITKRTAQANGYNGSMRAMTREQAISIYRKAFWERYRADQMPEAVAFQFFDACVNHGYGNAARMLQRAAGVPDDGVIGAVSLKAINSLPENDLLLRFNAERLVFYTKLGTFTSFGKGWVRRVAQNLIHASADNTD”, the protein production is reported as “not failed”.

— a protein production outcome set (Wang et al. 2014)
